This note sets out measurements from publication PMC4423619 (Journal of glycomics & lipidomics, 2015).

This assay addresses T1, rat testis FSH receptor (rat (endogenous in rat testis), UniProt P20395 18-692).
T1 sequence (looked up): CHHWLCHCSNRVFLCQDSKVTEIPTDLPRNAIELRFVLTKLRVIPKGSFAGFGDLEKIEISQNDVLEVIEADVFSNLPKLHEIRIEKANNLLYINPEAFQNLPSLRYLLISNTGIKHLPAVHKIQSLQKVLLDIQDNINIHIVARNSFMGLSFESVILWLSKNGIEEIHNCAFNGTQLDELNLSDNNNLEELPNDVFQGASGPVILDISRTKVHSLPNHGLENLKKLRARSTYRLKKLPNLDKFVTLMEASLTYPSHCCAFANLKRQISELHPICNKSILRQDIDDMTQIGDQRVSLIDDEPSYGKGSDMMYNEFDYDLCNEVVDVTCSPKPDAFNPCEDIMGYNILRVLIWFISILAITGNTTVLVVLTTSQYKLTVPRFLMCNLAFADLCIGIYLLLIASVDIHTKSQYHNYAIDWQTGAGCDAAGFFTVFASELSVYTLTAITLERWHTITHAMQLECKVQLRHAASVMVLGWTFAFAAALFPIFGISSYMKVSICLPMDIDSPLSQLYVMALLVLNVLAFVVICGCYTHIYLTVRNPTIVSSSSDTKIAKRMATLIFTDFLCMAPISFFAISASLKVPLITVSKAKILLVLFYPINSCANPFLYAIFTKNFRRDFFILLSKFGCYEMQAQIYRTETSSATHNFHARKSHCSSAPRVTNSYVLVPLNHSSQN
Put plainly: radioligand binding.

B1: human pituitary hFSH^24 glycoform (fully-glycosylated hFSH^24) (complex)
chain 1: not shown
chain 2: NSCELTNITIAIEKEECRFCISINTTWCAGYCYTRDLVYKDPARPKIQKTCTFKELVYETVRVPGCAHHADSLYTYPVATQCHCGKCDSDSTDCTVRGLGPSYCSFGEMKE
modifications: N-glycans at Asn52 and Asn78 | N-glycans at Asn7 and Asn24
Molecule B1 gave an ID50 of 269 ng.
